Measured values taken from IntAct's records for PubMed 22579248.

B1: Partitioning defective 3 homolog (Homo sapiens), Q8TEW0 (parent)
chain: MKVTVCFGRTRVVVPCGDGHMKVFSLIQQAVTRYRKAIAKDPNYWIQVHRLEHGDGGILDLDDILCDVADDKDRLVAVFDEQDPHHGGDGTSASSTGTQSPEIFGSELGTNNVSAFQPYQATSEIEVTPSVLRANMPLHVRRSSDPALIGLSTSVSDSNFSSEEPSRKNPTRWSTTAGFLKQNTAGSPKTCDRKKDENYRSLPRDTSNWSNQFQRDNARSSLSASHPMVGKWLEKQEQDEDGTEEDNSRVEPVGHADTGLEHIPNFSLDDMVKLVEVPNDGGPLGIHVVPFSARGGRTLGLLVKRLEKGGKAEHENLFRENDCIVRINDGDLRNRRFEQAQHMFRQAMRTPIIWFHVVPAANKEQYEQLSQSEKNNYYSSRFSPDSQYIDNRSVNSAGLHTVQRAPRLNHPPEQIDSHSRLPHSAHPSGKPPSAPASAPQNVFSTTVSSGYNTKKIGKRLNIQLKKGTEGLGFSITSRDVTIGGSAPIYVKNILPRGAAIQDGRLKAGDRLIEVNGVDLVGKSQEEVVSLLRSTKMEGTVSLLVFRQEDAFHPRELNAEPSQMQIPKETKAEDEDIVLTPDGTREFLTFEVPLNDSGSAGLGVSVKGNRSKENHADLGIFVKSIINGGAASKDGRLRVNDQLIAVNGESLLGKTNQDAMETLRRSMSTEGNKRGMIQLIVARRISKCNELKSPGSPPGPELPIETALDDRERRISHSLYSGIEGLDESPSRNAALSRIMGESGKYQLSPTVNMPQDDTVIIEDDRLPVLPPHLSDQSSSSSHDDVGFVTADAGTWAKAAISDSADCSLSPDVDPVLAFQREGFGRQSMSEKRTKQFSDASQLDFVKTRKSKSMDLGIADETKLNTVDDQKAGSPSRDVGPSLGLKKSSSLESLQTAVAEVTLNGDIPFHRPRPRIIRGRGCNESFRAAIDKSYDKPAVDDDDEGMETLEEDTEESSRSGRESVSTASDQPSHSLERQMNGNQEKGDKTDRKKDKTGKEKKKDRDKEKDKMKAKKGMLKGLGDMFRFGKHRKDDKIEKTGKIKIQESFTSEEERIRMKQEQERIQAKTREFRERQARERDYAEIQDFHRTFGCDDELMYGGVSSYEGSMALNARPQSPREGHMMDALYAQVKKPRNSKPSPVDSNRSTPSNHDRIQRLRQEFQQAKQDEDVEDRRRTYSFEQPWPNARPATQSGRHSVSVEVQMQRQRQEERESSQQAQRQYSSLPRQSRKNASSVSQDSWEQNYSPGEGFQSAKENPRYSSYQGSRNGYLGGHGFNARVMLETQELLRQEQRRKEQQMKKQPPSEGPSNYDSYKKVQDPSYAPPKGPFRQDVPPSPSQVARLNRLQTPEKGRPFYS
partner: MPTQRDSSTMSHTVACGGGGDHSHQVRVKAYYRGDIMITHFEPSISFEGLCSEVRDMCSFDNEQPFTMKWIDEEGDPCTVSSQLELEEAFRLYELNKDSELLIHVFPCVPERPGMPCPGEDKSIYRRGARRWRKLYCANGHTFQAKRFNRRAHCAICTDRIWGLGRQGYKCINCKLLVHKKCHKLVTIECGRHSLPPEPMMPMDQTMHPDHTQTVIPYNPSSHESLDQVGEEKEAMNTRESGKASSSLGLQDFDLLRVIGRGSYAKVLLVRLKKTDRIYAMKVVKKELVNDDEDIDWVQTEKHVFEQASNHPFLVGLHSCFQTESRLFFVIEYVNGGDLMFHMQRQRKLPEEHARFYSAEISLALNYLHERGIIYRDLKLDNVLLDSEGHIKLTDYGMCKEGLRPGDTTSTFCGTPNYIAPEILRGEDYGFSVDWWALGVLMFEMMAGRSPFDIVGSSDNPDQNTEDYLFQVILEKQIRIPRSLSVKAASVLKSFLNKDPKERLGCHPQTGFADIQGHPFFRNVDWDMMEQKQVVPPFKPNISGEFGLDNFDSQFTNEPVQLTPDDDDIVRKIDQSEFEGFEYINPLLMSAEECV
B2: Protein kinase C iota type (Mus musculus), Q62074 (parent)
chain: B1 partner

Variants of: B1
Conditions: with kpci_mouse Prkci

effect of a mutation on the interaction | Variant
disrupting interaction strength | F818A
disrupting interaction strength | S827A;S829A
disrupting interaction strength | S829E
decreasing interaction strength | S827A
disrupting interaction strength | S827E
decreasing interaction strength | F823K
disrupting interaction strength | F823A
disrupting interaction strength | S827E;S829E
disrupting interaction strength | R820A
disrupting interaction strength | R832A
disrupting interaction strength | R825A
disrupting interaction strength | K831A

Variants of: B2
Conditions: with pard3_human PARD3, Q8TEW0

effect of a mutation on the interaction | Variant
decreasing interaction strength | MPTQRDSSTMSHTVACGGGGDHSHQVRVKAYYRGDIMITHFEPSISFEGLCSEVRDMCSFDNEQPFTMKWIDEEGDPCTVSSQLELEEAFRLYELNKDSELLIHVFPCVPERPGMPCPGEDKSIYRRGARRWRKLYCANGHTFQAKRFNRRAHCAICTDRIWGLGRQGYKCINCKLLVHKKCHKLVTIECGRHSLPPEPMMPMDQTMHPDHTQTVIPYNPSSHESLDQVGEEKEAMNTRESGKASSSLGLQDFDLLRVIGRGSYAKVLLVRLKKTDRIYAMKVVKKELVNKLQKIDWVQTEKHVFEQASNHPFLVGLHSCFQTESRLFFVIEYVNGGDLMFHMQRQRKLPEEHARFYSAEISLALNYLHERGIIYRDLKLDNVLLDSEGHIKLTDYGMCKEGLRPGDTTSTFCGTPNYIAPEILRGEDYGFSVDWWALGVLMFEMMAGRSPFDIVGSSDNPDQNTEDYLFQVILEKQIRIPRSLSVKAASVLKSFLNKDPKERLGCHPQTGFADIQGHPFFRNVDWDMMEQKQVVPPFKPNISGEFGLDNFDSQFTNEPVQLTPDDDDIVRKIDQSEFEGFEYINPLLMSAEECV [D291K;D292L;E293Q;D294K]
decreasing interaction strength | MPTQRDSSTMSHTVACGGGGDHSHQVRVKAYYRGDIMITHFEPSISFEGLCSEVRDMCSFDNEQPFTMKWIDEEGDPCTVSSQLELEEAFRLYELNKDSELLIHVFPCVPERPGMPCPGEDKSIYRRGARRWRKLYCANGHTFQAKRFNRRAHCAICTDRIWGLGRQGYKCINCKLLVHKKCHKLVTIECGRHSLPPEPMMPMDQTMHPDHTQTVIPYNPSSHESLDQVGEEKEAMNTRESGKASSSLGLQDFDLLRVIGRGSYAKVLLVRLKKTDRIYAMKVVKKELVNDDEDIDWVQTEKHVFEQASNHPFLVGLHSCFQTESRLFFVIEYVNGGDLMFHMQRQRKLPEEHARFYSAEISLALNYLHERGIIYRDLKLDNVLLDSEGHIKLTDYGMCKEGLRPGDTTSTFCGTPDYIAPEILRGEDYGFSVDWWALGVLMFEMMAGRSPFDIVGSSDNPDQNTEDYLFQVILEKQIRIPRSLSVKAASVLKSFLNKDPKERLGCHPQTGFADIQGHPFFRNVDWDMMEQKQVVPPFKPNISGEFGLDNFDSQFTNEPVQLTPDDDDIVRKIDQSEFEGFEYINPLLMSAEECV [N417D]

Variants of: B2
Conditions: with pard3_human PARD3, Q8TEW0
Remark: another data set of the same source

effect of a mutation on the interaction | Variant
increasing interaction strength | MPTQRDSSTMSHTVACGGGGDHSHQVRVKAYYRGDIMITHFEPSISFEGLCSEVRDMCSFDNEQPFTMKWIDEEGDPCTVSSQLELEEAFRLYELNKDSELLIHVFPCVPERPGMPCPGEDKSIAAAGARRWRKLYCANGHTFQAKRFNRRAHCAICTDRIWGLGRQGYKCINCKLLVHKKCHKLVTIECGRHSLPPEPMMPMDQTMHPDHTQTVIPYNPSSHESLDQVGEEKEAMNTRESGKASSSLGLQDFDLLRVIGRGSYAKVLLVRLKKTDRIYAMKVVKKELVNDDEDIDWVQTEKHVFEQASNHPFLVGLHSCFQTESRLFFVIEYVNGGDLMFHMQRQRKLPEEHARFYSAEISLALNYLHERGIIYRDLKLDNVLLDSEGHIKLTDYGMCKEGLRPGDTTSTFCGTPNYIAPEILRGEDYGFSVDWWALGVLMFEMMAGRSPFDIVGSSDNPDQNTEDYLFQVILEKQIRIPRSLSVKAASVLKSFLNKDPKERLGCHPQTGFADIQGHPFFRNVDWDMMEQKQVVPPFKPNISGEFGLDNFDSQFTNEPVQLTPDDDDIVRKIDQSEFEGFEYINPLLMSAEECV [Y125A;R126A;R127A]
